Measured values as given in the DeepSol protein solubility set.

Experiment: soluble on expression in E. coli; label from the status in PepcDB or PDB records
For “MGSDKIHHHHHHMGLRILQVMAGAEQGGAELFFERLCIALHRAGLHQHVVMREASVRLARMREAGLRPVLLPFGGRFDFKTGRALRQEIARFQPAVVLSWMNRATRFVRPGNHVFCARLGGYYDLKYYRGCDWLVCNTEDIRDYVIKQGFPAERAVHLPNFVPQQHMAPTARKLLYTPENAPLVLALGRLHENKAFDVLLRALALVPDVYLWLAGEGPLRASLETLAQDLGVKPRVRFLGWRDDTPALYAAADLVVFPSRHEPLGNVVLEAWAQRTPMVSTRTDGPARLITSGHNGLLVPIDDHRAMAGAIRQAFGEPGLGEAMARAGWDSYLAAYTEEKVVASYRSFFETIVAERSGAVDRG”, the “soluble on expression in E. coli” value was “not soluble”. For “MSHPVVSKEEWLAARRDLLVKEKELTRARDRLNEARRALPWEEVTKDYIFDAPSGPRSLQELFGDCSQLIVYHFMLAPDWEEGCVGCSFFADHVDGALVHLRHGDAGFVAVSRAPLEKIEGYKNRMGWKFPWVSAEGSDFNYDYQASFRDEDVEKGEITYNYRDMAPFGDLKDLHGISVFAKGEDGKIYHTYSTYARGAEQTLGTLMLLDLVPKGRNEDEVMDWVRRHDQYEDAPKAASCCH”, the “soluble on expression in E. coli” value was “not soluble”. In the case of “MDNRSASLHSDIDTVLNNYDYDFAEVEIAVLGNGHINNTYKLTTPEVEFVLQQINHDVFPKTAELSSNAQKINLHLQRQKNIGNYPLSIPQQILSKTGETYSKVGTNYWRLMEFISNSYTLEEVESPEQAALVANAFAEFSCTLSDFPVEELAVIIEDFHDISFRMRQLNEAVENDLQDRLSSCQTLVNFCLDQQDFINHVIDISKKLPLHVTHNDTKINNLLFTEGDTPCAVIDLDTCMPGLLMHDFGDMVRTCCSNLAEDDTNIDAMIIKLDIFSALIQSYQNAFGTKMSALEKDSLIVGTKSVPFSLGTRFLTDYLNGDSYFQVSREKHNLDRAFNQIQLFILLCEAEPELIKLAMQALEHHHHHH”, the “soluble on expression in E. coli” value is reported as “not soluble”. With “GMSLIPEIDAFLGCPTPDAWIEAALADQETLLIDHKNCEFKAASTALSLIAKYNTHLDLINMMSRLAREELVHHEQVLRLMKRRGVPLRPVSAGRYASGLRRLVRAHEPVKLVDTLVVGAFIEARSCERFAALVPHLDEELGRFYHGLLKSEARHYQGYLKLAHNYGDEADIARCVELVRAAEMELIQSPDQELRFHSGIPQALAA” the “soluble on expression in E. coli” value was “soluble”. For “MSLGNPAAMLAAYNTSTQVAPQPQLGPRAGEVQLSSEQQAMIDYVLAGKDVIVDATVGSGKTTAIQRLCSIMGADHDVLYLTYSKLLKVDAQQRVRGAKVQNYHGIVYPHLLKAGIKCGISESIREFNKNFKHISRTFPSYDLLVIDEYQDINEDYAELLRNIKSVNPLMQIVMVGDLEQKVRSDTTLDPQEFAAQLCEDPVFAPFTQSFRIGEAMAAGLADAWNKPIVGANTAQQIEYRSFAEAVVLIQSTEPSKLLCLGSRNGQMSDALNVVERKSPAKFNKKTVFASIRDGDSQIAHPNDAAVFTTFDSSKGLERDTCVVFDYDEEFWDMRLGYPNVDPVVMRNVFLVAASRGKNKVVFVRSDSLQAAYEAGADWAAGLAVGVVDNNTEVAPEVDAHTPAEESKGDVGEVQSQIERMMGFIPVSVFKELPELAPSEYARPISVTEAFDFKYAENVEACFDLLDVKRLDNGKGAAIEVNRSDGLIDLSPTVGNFQEAVFFKDYNVHTALSAYPSQFAKNLKRLVKKNNSVWRNCLIVTAASTEQMRYVDQVRSSIPVAAEKALVSRLSTRLNADSRNQIPLILDGEAVQSKVVRTPMSFAGVADAVHKGVLYELKFVSELTHPMFLQLAMYLVMSGMKDGILWNTRTDEAWQVRVPDPKRFLNAVVLCVSKQDYRVGNFDLPSTGGEGHHHHHH”, the “soluble on expression in E. coli” value was “soluble”. In the case of “TPDTLELSLDKPAYRPGETAQLRIVPRAPGKALVTVLSNRVIAMKAVEVGEGETLVDLPVTDEWGTGVYVTATLLRPMDVAAGRNPTRALGLAHAAIDPGEKRLGATIETAAEAAPRGPMEIAVKVEGTAPGETVHATIAAVDVGILNLTGF”, the “soluble on expression in E. coli” value is reported as “not soluble”. For “MTAENIVVVAVDGSEASQNAVRWAANTANKRGVPLRLAASYTMPQFLYAEGMVPPQELFDELQSETMDMIEAARVVAHEVAPDIKIGYVIAEGSPIDMLLDMSSDVTMIVMGSRGLGGLSGMVMGSVSAAVVSHADCPVVVVRSDNHVTETNKYGPVVVGVDGSDVSQRATEFAFEEAQARGAKLVAIHTWMDMQVQASLAGLAAAQQEWEIIEKEQTTLLKDRLQPLLERFPDVEVEMVITRDRPVRALEDCAHNAQLLVVGSHGRGGFRGMLLGSTSRALLQSAPCPMVVVRPNEKEN”, the “soluble on expression in E. coli” value was “not soluble”.
